Experiment [1] concerns the target FKBP×3-VP16 fusion protein (human; Herpes Simplex Virus) (UniProt P62942). Description: cell-based or functional assay.
Experiment [2] concerns the target FKBP×3-p65 fusion protein (human) (UniProt P62942). The experiment can be described thus: cell-based or functional assay.

Consider “ZFHD1-FKBP×3 fusion protein (from UniProt P08046 333-390; P14859 378-439; P62942 2-108; P62942 2-108; P62942 2-108)”, for which the FK1012 concentration at peak SEAP activation in experiment [1] and in experiment [2] was 100 nM each time.

The record behind these values is patent US20070150973A1.
